Earlier results on 1 molecule are cited in patent publication US11672857B2, “Compositions and methods for a multi-adjuvant only approach to immunoprophylaxis for preventing infections” (University of Southern California, priority 2017, dated 2023).

The subject of this data set is T cell. Conditions: compared with non-glycosylated ovalbumin produced in E. coli.

B1: Yeast-mannosylated ovalbumin: recombinant ovalbumin mannosylated by yeast during production (Lam et al.) (protein, UniProt P01012 2-386, looked up)
Ovalbumin: GSIGAASMEFCFDVFKELKVHHANENIFYCPIAIMSALAMVYLGAKDSTRTQINKVVRFDKLPGFGDSIEAQCGTSVNVHSSLRDILNQITKPNDVYSFSLASRLYAEERYPILPEYLQCVKELYRGGLEPINFQTAADQARELINSWVESQTNGIIRNVLQPSSVDSQTAMVLVNAIVFKGLWEKAFKDEDTQAMPFRVTEQESKPVQMMYQIGLFRVASMASEKMKILELPFASGTMSMLVLLPDEVSGLEQLESIINFEKLTEWTSSNVMEERKIKVYLPRMKMEEKYNLTSVLMAMGITDVFSSSANLSGISSAESLKISQAVHAAHAEINEAGREVVGSAEAGVDAASVSEEFRADHPFLFCIKHIATNAVLFFGRCVSP
modifications: yeast mannosylation
With B1, the T cell proliferation entry is on record as “significantly greater T cell proliferation than did non-glycosylated ovalbumin produced in E. coli”.
